Test results taken from the RNAGym collection of RNA variant scans (doi:10.7554/elife.80360).

B1: HDV Ribozyme (parent)
chain: GGCCGGCAUGGUCCCAGCCUCCUCGCUGGCGCCGGCUGGGCAACAUUCCGAGGGGACCGUCCCCUCGGUAAUGGCGAAUGGGACCCA

Variants of: B1
Experiment: self-cleavage, relative activity (ratio to wild type); higher = more cleavage; co-transcriptional

Variant	self-cleavage
GGCCGGCAUGGUCCCAGCCUCCUCGCUGGCGCCGGCUGGGCAACAUUCCGAGGGGACGGUCCCCUCGGAAAUGGCGAAUGGGACCCA	0.911
GGCCGGCAUGGUCCCAGCCUCCUCGCUGGCGCCGGCUGGGCAACAUUCCGAGGGGACGGUCCCCUCGGGAAUGGCGAAUGGGACCCA	1.17
GGCCGGCAUGGUCCCAGCCUCCUCGCUGGCGCCGGCUGGGCAACAUUCCGAGGGGACGGUCCCCUCGGCAAUGGCGAAUGGGACCCA	1.36
GGCCGGCAUGGUCCCAGCCUCCUCGCUGGCGCCGGCUGGGCAACAUUCCGAGGGGACGGGCCCCUCGGUAAUGGCGAAUGGGACCCA	0.532
GGCCGGCAUGGUCCCAGCCUCCUCGCUGGCGCCGGCUGGGCAACAUUCCGAGGGGACUGUCCCCUCGGUAAUGGCGAAGGGGACCCA	0.612
GGCCGGCAUGGUCCCAGCCUCCUCGCUGGCGCCGGCUGGGCAACAUUCCGAGGGGACUGUCCCCUCGGUAAUGGCGAACGGGACCCA	0.38
GGCCGGCAUGGUCCCAGCCUCCUCGCUGGCGCCGGCUGGGCAACAUUCCGAGGGGACUGUCCCCUCGGUAAUGGCGAAUGGUACCCA	0.34
GGCCGGCAUGGUCCCAGCCUCCUCGCUGGCGCCGGCUGGGCAACAUUCCGAGGGGACUGUCCCCACGGUAAUGGCGAAUGGGACCCA	1.17
GGCCGGCAUGGUCCCAGCCUCCUCGCUGGCGCCGGCUGGGCAACAUUCCGAGGGGACGGUCCCCUCGGUAAAGGCGAAUGGGACCCA	0.594
GGCCGGCAUGGUCCCAGCCUCCUCGCUGGCGCCGGCUGGGCAACAUUCCGAGGGGACCAUCCCCUCGGUAAUGGCGAAUGGGAGCCA	0.597
GGCCGGCAUGGUCCCAGCCUCCUCGCUGGCGCCGGCUGGGCAACAUUCCGAGGGGACGGUCCCCUCAGUAAUGGCGAAUGGGACCCA	1.28
GGCCGGCAUGGUCCCAGCCUCCUCGCUGGCGCCGGCUGGGCAACAUUCCGAGGGGACCAUCCCCUCGGUAAUGGCGACUGGGACCCA	0.282
GGCCGGCAUGGUCCCAGCCUCCUCGCUGGCGCCGGCUGGGCAACAUUCCGAGGGGACUGUCGCCUCGGUAAUGGCGAAUGGGACCCA	0.812
GGCCGGCAUGGUCCCAGCCUCCUCGCUGGCGCCGGCUGGGCAACAUUCCGAGGGGACCAUCCCCUCGGUAAUGGCGAAAGGGACCCA	0.884
GGCCGGCAUGGUCCCAGCCUCCUCGCUGGCGCCGGCUGGGCAACAUUCCGAGGGGACCAUCCCCUCGGUAAUGGCGAACGGGACCCA	0.518
GGCCGGCAUGGUCCCAGCCUCCUCGCUGGCGCCGGCUGGGCAACAUUCCGAGGGGACGGUCCCCUCGGUAAUGGCAAAUGGGACCCA	1
GGCCGGCAUGGUCCCAGCCUCCUCGCUGGCGCCGGCUGGGCAACAUUCCGAGGGGACGGUCCCCUCGGUAAUGGCCAAUGGGACCCA	0.914
GGCCGGCAUGGUCCCAGCCUCCUCGCUGGCGCCGGCUGGGCAACAUUCCGAGGGGACCCUCCCCUCGGUAAUGGCGAAUGGGACCCA	1.01
GGCCGGCAUGGUCCCAGCCUCCUCGCUGGCGCCGGCUGGGCAACAUUCCGAGGGGACCAUCCCCUCGGUAAUGGCGAAUGGGACCCA	1.02
GGCCGGCAUGGUCCCAGCCUCCUCGCUGGCGCCGGCUGGGCAACAUUCCGAGGGGACCAUCUCCUCGGUAAUGGCGAAUGGGACCCA	1.22
GGCCGGCAUGGUCCCAGCCUCCUCGCUGGCGCCGGCUGGGCAACAUUCCGAGGGGACCAUCCCCUCCGUAAUGGCGAAUGGGACCCA	1.05
GGCCGGCAUGGUCCCAGCCUCCUCGCUGGCGCCGGCUGGGCAACAUUCCGAGGGGACCAUCCCUUCGGUAAUGGCGAAUGGGACCCA	0.903

Variant	self-cleavage
GGCCGGCAUGGUCCCAGCCUCCUCGCUGGCGCCGGCUGGGCAACAUUCCGAGGGGACCAUCCCGUCGGUAAUGGCGAAUGGGACCCA	0.831
GGCCGGCAUGGUCCCAGCCUCCUCGCUGGCGCCGGCUGGGCAACAUUCCGAGGGGACUGUCCCCUCGGUAAUGGGGAAUGGGACCCA	0.116
GGCCGGCAUGGUCCCAGCCUCCUCGCUGGCGCCGGCUGGGCAACAUUCCGAGGGGACUGUCCUCUCGGUAAUGGCGAAUGGGACCCA	1.04
GGCCGGCAUGGUCCCAGCCUCCUCGCUGGCGCCGGCUGGGCAACAUUCCGAGGGGACUGUCCCCUCGGUAAUGGCGAAUGGGACACA	1.13
GGCCGGCAUGGUCCCAGCCUCCUCGCUGGCGCCGGCUGGGCAACAUUCCGAGGGGACCAUCCCCUCGGUAAUGGCGAAUGAGACCCA	0.472
GGCCGGCAUGGUCCCAGCCUCCUCGCUGGCGCCGGCUGGGCAACAUUCCGAGGGGACUGUCCCCUGGGUAAUGGCGAAUGGGACCCA	0.931
GGCCGGCAUGGUCCCAGCCUCCUCGCUGGCGCCGGCUGGGCAACAUUCCGAGGGGACGGUCCCCUCGGUAAUGGCGAAGGGGACCCA	0.776
GGCCGGCAUGGUCCCAGCCUCCUCGCUGGCGCCGGCUGGGCAACAUUCCGAGGGGACGGUCCCCUCGGUAAUGACGAAUGGGACCCA	0.499
GGCCGGCAUGGUCCCAGCCUCCUCGCUGGCGCCGGCUGGGCAACAUUCCGAGGGGACCAUCCCCUCGGUAUUGGCGAAUGGGACCCA	0.929
GGCCGGCAUGGUCCCAGCCUCCUCGCUGGCGCCGGCUGGGCAACAUUCCGAGGGGACCAUCCCCUCGGUAGUGGCGAAUGGGACCCA	0.984
GGCCGGCAUGGUCCCAGCCUCCUCGCUGGCGCCGGCUGGGCAACAUUCCGAGGGGACUAUCCCCUCGGUAAUGGCGAAUGGGACCCA	1.12
GGCCGGCAUGGUCCCAGCCUCCUCGCUGGCGCCGGCUGGGCAACAUUCCGAGGGGACUCUCCCCUCGGUAAUGGCGAAUGGGACCCA	0.923
GGCCGGCAUGGUCCCAGCCUCCUCGCUGGCGCCGGCUGGGCAACAUUCCGAGGGGACCAUCCCCUCGGUAACGGCGAAUGGGACCCA	0.607
GGCCGGCAUGGUCCCAGCCUCCUCGCUGGCGCCGGCUGGGCAACAUUCCGAGGGGACCAUCCCCUCGGUAAUUGCGAAUGGGACCCA	0.267
GGCCGGCAUGGUCCCAGCCUCCUCGCUGGCGCCGGCUGGGCAACAUUCCGAGGGGACCAUCCCCUCGGUAAUGGCGAAUGGGACUCA	0.796
GGCCGGCAUGGUCCCAGCCUCCUCGCUGGCGCCGGCUGGGCAACAUUCCGAGGGGACCAUCCCCUCGGUAAUGGCGAAUGGUACCCA	0.467
GGCCGGCAUGGUCCCAGCCUCCUCGCUGGCGCCGGCUGGGCAACAUUCCGAGGGGACCAUCCCCUCGGUAAUGCCGAAUGGGACCCA	0.198
GGCCGGCAUGGUCCCAGCCUCCUCGCUGGCGCCGGCUGGGCAACAUUCCGAGGGGACUGUCCCGUCGGUAAUGGCGAAUGGGACCCA	0.895
GGCCGGCAUGGUCCCAGCCUCCUCGCUGGCGCCGGCUGGGCAACAUUCCGAGGGGACUGUCCCCUCGGUAAUCGCGAAUGGGACCCA	0.608
GGCCGGCAUGGUCCCAGCCUCCUCGCUGGCGCCGGCUGGGCAACAUUCCGAGGGGACUGUCCCCUCGGUAAUUGCGAAUGGGACCCA	0.343
GGCCGGCAUGGUCCCAGCCUCCUCGCUGGCGCCGGCUGGGCAACAUUCCGAGGGGACUGUCCCCUCGGCAAUGGCGAAUGGGACCCA	0.95
GGCCGGCAUGGUCCCAGCCUCCUCGCUGGCGCCGGCUGGGCAACAUUCCGAGGGGACUGUCCCCUCUGUAAUGGCGAAUGGGACCCA	1.12

Variant	self-cleavage
GGCCGGCAUGGUCCCAGCCUCCUCGCUGGCGCCGGCUGGGCAACAUUCCGAGGGGACUGUCCCCUCGGUAAUGGCGAAUGGGACCCU	0.915
GGCCGGCAUGGUCCCAGCCUCCUCGCUGGCGCCGGCUGGGCAACAUUCCGAGGGGACUGUCCCCUCGGUAAUGGCGAAUGGGACCCC	0.905
GGCCGGCAUGGUCCCAGCCUCCUCGCUGGCGCCGGCUGGGCAACAUUCCGAGGGGACUGUCCCCUCGGUAAUGUCGAAUGGGACCCA	0.51
GGCCGGCAUGGUCCCAGCCUCCUCGCUGGCGCCGGCUGGGCAACAUUCCGAGGGGACUGUCCCCUCGGUAAUGCCGAAUGGGACCCA	0.227
GGCCGGCAUGGUCCCAGCCUCCUCGCUGGCGCCGGCUGGGCAACAUUCCGAGGGGACGUUCCCCUCGGUAAUGGCGAAUGGGACCCA	0.946
GGCCGGCAUGGUCCCAGCCUCCUCGCUGGCGCCGGCUGGGCAACAUUCCGAGGGGACGCUCCCCUCGGUAAUGGCGAAUGGGACCCA	1.03
GGCCGGCAUGGUCCCAGCCUCCUCGCUGGCGCCGGCUGGGCAACAUUCCGAGGGGACUGUCCCCUCGGUAAUGGCGAGUGGGACCCA	0.77
GGCCGGCAUGGUCCCAGCCUCCUCGCUGGCGCCGGCUGGGCAACAUUCCGAGGGGACUGUGCCCUCGGUAAUGGCGAAUGGGACCCA	0.967
GGCCGGCAUGGUCCCAGCCUCCUCGCUGGCGCCGGCUGGGCAACAUUCCGAGGGGACCAUCCCCUCGGAAAUGGCGAAUGGGACCCA	1.08
GGCCGGCAUGGUCCCAGCCUCCUCGCUGGCGCCGGCUGGGCAACAUUCCGAGGGGACCAUCCCCUCGGGAAUGGCGAAUGGGACCCA	1
GGCCGGCAUGGUCCCAGCCUCCUCGCUGGCGCCGGCUGGGCAACAUUCCGAGGGGACCAUCCCCUCGGUAAUGGCGUAUGGGACCCA	0.574
GGCCGGCAUGGUCCCAGCCUCCUCGCUGGCGCCGGCUGGGCAACAUUCCGAGGGGACUGUCCCCUCGGUAAUGGCGAAUCGGACCCA	0.203
GGCCGGCAUGGUCCCAGCCUCCUCGCUGGCGCCGGCUGGGCAACAUUCCGAGGGGACUGUCCCCUCGGUAAUGGCGAAUAGGACCCA	0.372
GGCCGGCAUGGUCCCAGCCUCCUCGCUGGCGCCGGCUGGGCAACAUUCCGAGGGGACCCUCCCCUCGGUGAUGGCGAAUGGGACCCA	1.06
GGCCGGCAUGGUCCCAGCCUCCUCGCUGGCGCCGGCUGGGCAACAUUCCGAGGGGACCCUCCCCUCGGUAAUGGCGAUUGGGACCCA	0.155
GGCCGGCAUGGUCCCAGCCUCCUCGCUGGCGCCGGCUGGGCAACAUUCCGAGGGGACCAUCCCCUCGGUAAUGGCAAAUGGGACCCA	1.07
GGCCGGCAUGGUCCCAGCCUCCUCGCUGGCGCCGGCUGGGCAACAUUCCGAGGGGACCAUCCGCUCGGUAAUGGCGAAUGGGACCCA	0.805
GGCCGGCAUGGUCCCAGCCUCCUCGCUGGCGCCGGCUGGGCAACAUUCCGAGGGGACCAUCCUCUCGGUAAUGGCGAAUGGGACCCA	1.13
GGCCGGCAUGGUCCCAGCCUCCUCGCUGGCGCCGGCUGGGCAACAUUCCGAGGGGACGGUCCCCUCGGUAAUUGCGAAUGGGACCCA	0.217
GGCCGGCAUGGUCCCAGCCUCCUCGCUGGCGCCGGCUGGGCAACAUUCCGAGGGGACCAUCCCCUCGGUAAUGGCGAAUGGGACCCU	0.974
